Assay results published in article PMC11551740.

Target: M.EcoGII (methyltransferase EcoGII) (Escherichia coli)
Assay: SEC; 50-100 ug protein on Superdex 200 Increase 10/300 GL, 0.75 ml/min, 20 mM HEPES (pH 7.0 in the methods, pH 7.4 in the legend), 250 mM NaCl; molecular weight estimated from a calibration curve of LMW markers

stoichiometry N: 2
Substance: M.EcoGII (methyltransferase EcoGII) (enzyme)
